Like-named read-outs stand apart in the source and are kept apart here.

Experiment [1] addresses T1, recombinant human IL-17A (human, UniProt Q16552 24-155).
T1 construct: Bought recombinant protein (Peprotech AF-200-17); also called Peprotech AF-200-17
The experiment in a line: competition ELISA, IL-17A binding to coated IL-17RA-Fc (FIG. 9B); FIG. 9B.
Protocol: (§1) Following washing of excess coating antigen, as described above, the wells of the plate were incubated with 3% skimmed milk powder/PBS to block non-specific protein interactions. […] The mixture was then transferred to the assay plate and incubated for 1 hour at room temperature.
(§2) Where appropriate, curve fitting in PRISM was used to determine the EC₅₀ of inhibiting VH.

A further experiment deals with T2, IL17E.
T2 construct: also called IL-25
T2 chain: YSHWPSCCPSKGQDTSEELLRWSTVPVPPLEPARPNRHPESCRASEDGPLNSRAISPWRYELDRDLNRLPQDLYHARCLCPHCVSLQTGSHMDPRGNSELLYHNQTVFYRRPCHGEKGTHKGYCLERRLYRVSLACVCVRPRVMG
The experiment in a line: specificity ELISA on coated antigen, VH concentration not given.

Another experiment has as its target T3, IL-17F (UniProt Q96PD4 31-163, limits assumed).
T3 sequence (looked up): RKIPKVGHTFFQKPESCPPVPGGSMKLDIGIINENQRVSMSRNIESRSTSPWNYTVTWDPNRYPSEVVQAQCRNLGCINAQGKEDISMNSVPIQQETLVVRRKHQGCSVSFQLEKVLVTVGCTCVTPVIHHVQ
Described as above.

A further experiment deals with T4, IL-17C (UniProt Q9P0M4 19-197, limits assumed).
T4 sequence (looked up): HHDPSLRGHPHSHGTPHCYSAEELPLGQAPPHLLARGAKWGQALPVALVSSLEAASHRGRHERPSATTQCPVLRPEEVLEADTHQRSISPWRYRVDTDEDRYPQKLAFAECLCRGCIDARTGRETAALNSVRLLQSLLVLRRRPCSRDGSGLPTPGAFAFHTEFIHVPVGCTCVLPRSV
Described as above.

Experiment [2] has as its target T1, recombinant human IL-17A. The experiment in a line: cell-based or functional assay.
The target in experiment [3] is T1, recombinant human IL-17A. As to the kind of experiment: SPR (BIAcore T200), IL-17A coupled to CM5 chip, single-cycle kinetics.
Protocol: (§3) VH binding kinetics were then determined from the (blank subtracted) sensorgram traces using 1:1 binding models and BIAevaluation software.
For experiment [4], the target named is T1, recombinant human IL-17A. Described as above. The source holds these as a separate data set.
Protocol: as §3
Experiment [5] has as its target T1, recombinant human IL-17A. As to the kind of experiment: cell-based or functional assay. This is another data set of the same source.
Experiment [6] has as its target T1, recombinant human IL-17A. As to the kind of experiment: competition ELISA, IL-17A binding to coated IL-17RA-Fc.
Protocol: as §1, §2
The target in experiment [7] is T1, recombinant human IL-17A. The experiment in a line: BIAcore single-cycle kinetics, ligand Il-17, 1:1 binding fit, 25 C (n=1 per legend).
The target of experiment [8] is T1, recombinant human IL-17A. The experiment in a line: BIAcore single-cycle kinetics on IL-17A (n=2 per legend).
The target of experiment [9] is T1, recombinant human IL-17A. The experiment in a line: cell-based or functional assay. The source holds these as a separate data set.
Experiment [10] deals with T1, recombinant human IL-17A. As to the kind of experiment: BIAcore single-cycle kinetics, ligand Il-17, 1:1 binding fit, 25 C (n=1 per legend). This is another data set of the same source.
Experiment [11] addresses T1, recombinant human IL-17A. The experiment in a line: BIAcore single-cycle kinetics on IL-17A (n=2 per legend). This is another data set of the same source.

T1 sequence (Q16552 24-155): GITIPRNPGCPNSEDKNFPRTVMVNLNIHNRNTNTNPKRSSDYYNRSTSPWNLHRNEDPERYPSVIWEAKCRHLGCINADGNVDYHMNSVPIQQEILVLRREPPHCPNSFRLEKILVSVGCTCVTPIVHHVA

B1: VH 1.1.1 (clone 1.1 expressed from phagemid vector: with linker residues and His tag) (VHH)
VHH: EVQLVESGGGLVQPGGSLRLSCAASGFTFSSYSMYWVRQAPGKGLEWVANIKQDGSEKYYVDSVKGRFTISRDNAKNSLFLQMNSLRAEDTAVYYCAKGEILPLHFDYWGQGTLVTVSS
notes: Human single VH domain; also called Family 1 (clone 1.1)
Regarding B1, the IC50 with recombinant human IL-17A [1] turned out to be 29 nM; in the experiment with recombinant human IL-17A [6], 53 nM. Besides, the binding result with IL17E, in the experiment with IL-17F and with IL-17C was “no binding” in each case. Further, the “Cell assay IC50 (nM), IL-17A-induced IL6 release from HT1080” value in the experiment with recombinant human IL-17A [2] and in the experiment with recombinant human IL-17A [5] was 13 nM throughout. For the same molecule, the Kd in the experiment with recombinant human IL-17A [3] and with recombinant human IL-17A [4] was 5 nM throughout. Besides, the off-rate constant (koff) in the experiment with recombinant human IL-17A [3] and with recombinant human IL-17A [4] was 0.00149 s⁻¹ each time. The kon with recombinant human IL-17A [3] and with recombinant human IL-17A [4] was 296000 M⁻¹ s⁻¹ throughout.

B2: 3.2-2(G4S)-1.2 (VHH)
VH-linker-VH: QVQLVQSGAEVKKPGASVKVSCKASGYNADAYYINWVRQAPGQGLEWMGSIKPNTGATKYAQKFQGRVTITRDTSISTAYMELSRLRSDDTAVYYCASLDRDTWYPHSYAGWFDAWGQGTLVTVSSAAGGGGSGGGGSEVQLVESGGGLVQPGGSLRLSCAASGFTFSSYSMYWVRQAPGKGLEWVAEIKQDGSVQYYVSDVKGRFTISRDNAKNSLYLQMNSLRAEDTAVYYCAKGEILPLYFDYWGQGTLVTVSS
notes: also called Biparatopic: 3.2-2(G4S)-1.2
Consider B2, for which, in the experiment with recombinant human IL-17A [7], the dissociation constant (Kd) turned out to be 0.0429 nM, the koff was 4.75e-05 s⁻¹ and the on-rate (kon) was determined as 1.1e+06 M⁻¹ s⁻¹. Also, the dissociation constant Kd with recombinant human IL-17A [8] turned out to be 0.045 nM. Also, the EC50 with recombinant human IL-17A [9] was determined as 1.07 nM.

B3: 3.2-6(G4S)-1.2 (VHH)
VH-linker-VH: QVQLVQSGAEVKKPGASVKVSCKASGYNADAYYINWVRQAPGQGLEWMGSIKPNTGATKYAQKFQGRVTITRDTSISTAYMELSRLRSDDTAVYYCASLDRDTWYPHSYAGWFDAWGQGTLVTVSSAAGGGGSGGGGSGGGGSGGGGSGGGGSGGGGSEVQLVESGGGLVQPGGSLRLSCAASGFTFSSYSMYWVRQAPGKGLEWVAEIKQDGSVQYYVSDVKGRFTISRDNAKNSLYLQMNSLRAEDTAVYYCAKGEILPLYFDYWGQGTLVTVSS
notes: also called Biparatopic 3.2-6(G4S)-1.2
With B3, in the experiment with recombinant human IL-17A [10], the dissociation constant Kd was 0.0198 nM, the koff came out at 3.02e-05 s⁻¹ and the on-rate constant (kon) amounted to 1.52e+06 M⁻¹ s⁻¹. For the same molecule, in the experiment with recombinant human IL-17A [11], the Kd turned out to be 0.02 nM. For the same molecule, in the experiment with recombinant human IL-17A [9], the EC50 turned out to be 0.923 nM.

These data come from US20200347127A1 (CRESCENDO BIOLOGICS, published 2020).
